Experimental findings from the supplement of paper PMC10567573 are described below.

First the molecules themselves.
B1: DVL3 (parent)
chain: FCADNPSELPPPMERTGGIGDSRP
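Note: lentivirally expressed fusions sorted by FACS into six bins by GFP to DsRed ratio, PSI derived from sequencing read proportions per bin multiplied by bin number.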

The variants in this data set derive from B1. The data set can be described thus: protein stability index of a GFP-peptide fusion (GPS, HEK-293T) (PSI 1-6); higher = more stable. As to conditions: c terminus: a fixed tail appended.
As to FCADNPSELPPPMERTGGIGDKRP [S22K], the protein stability index came out at 4.77. The value for FCADNPSELPPPMERTGGIGDQRP [S22Q] was 5.11. In the case of FCADNPSELPPPMERTGGIGDCRP [S22C], the protein stability index was determined as 3.55.

As to FCADNPSELPPPMERTGGIGDYRP [S22Y], the protein stability index was 4.23.

For FCADNPSELPPPMERTGGIGDRRP [S22R], the protein stability index was determined as 4.29. The value for FCADNPSELPPPMERTGGIGDARP [S22A] was 4.61; that for FCADNPSELPPPMERTGGIGDLRP [S22L] was 4.4; that for FCADNPSELPPPMERTGGIGDHRP [S22H] was 4.34. The value for FCADNPSELPPPMERTGGIGDVRP [S22V] was 4.15; that for FCADNPSELPPPMERTGGIGDERP [S22E] was 5.23.

On to FCADNPSELPPPMERTGGIGDDRP [S22D], for which the protein stability index is 4.88. Consider FCADNPSELPPPMERTVGIGDSRP [G17V], for which the protein stability index was found to be 4.12.

With FCADNPSELPPPMERTLGIGDSRP [G17L], the protein stability index is 4.12. Take FCADNPSELPPPMERTHGIGDSRP [G17H]: the protein stability index was found to be 4.69. The value for FCADNPSELPPPMERTPGIGDSRP [G17P] was 4.85; that for FCADNPSELPPPMERTNGIGDSRP [G17N] was 4.74; that for FCADNPSELPPPMERTIGIGDSRP [G17I] was 4.09.

Take FCADNPSELPPPMERTRGIGDSRP [G17R]: the protein stability index is 4.62. The value for FCADNPSELPPPMERTTGIGDSRP [G17T] was 4.48; that for FCADNPSELPPPMERTDGIGDSRP [G17D] was 4.61.

On to FCADNPSELPPPMERTKGIGDSRP [G17K], for which the protein stability index was found to be 4.89.

As for FCADNPSELPPPMERTQGIGDSRP [G17Q], the protein stability index worked out at 4.73.

Turning to FCADNPSELPPPMERTFGIGDSRP [G17F], the protein stability index is 3.79. The value for FCADNPSELPPPMERTAGIGDSRP [G17A] was 4.51; that for FCADNPSELPPPMERTSGIGDSRP [G17S] was 4.3; that for FCADNPSELPPPMERTEGIGDSRP [G17E] was 4.54. For FCADNPSELPPPMERTYGIGDSRP [G17Y], the protein stability index was 3.91. The value for FCADNPSELPPPMERTMGIGDSRP [G17M] was 4.48; that for FCADNPSELPPPMERTGGINDSRP [G20N] was 4.54; that for FCADNPSELPPPMERTGGIMDSRP [G20M] was 4.18. The value for FCADNPSELPPPMERTGGICDSRP [G20C] was 4.12.

Take FCADNPSELPPPMERTGGISDSRP [G20S]: the protein stability index is 4.4. The value for FCADNPSELPPPMERTGGIPDSRP [G20P] was 5.08. Regarding FCADNPSELPPPMERTGGITDSRP [G20T], the protein stability index was 4.66.

FCADNPSELPPPMERTGGIADSRP [G20A]: the protein stability index turned out to be 4.68. The value for FCADNPSELPPPMERTGGIHDSRP [G20H] was 4.18; that for FCADNPSELPPPMERTGGIIDSRP [G20I] was 4.48. The value for FCADNPSELPPPMERTGGILDSRP [G20L] was 3.76; that for FCADNPSELPPPMERTGGIVDSRP [G20V] was 4.49. The value for FCADNPSELPPPMERTGGIFDSRP [G20F] was 3.78.

For FCADNPSELPPPMERTGGIDDSRP [G20D], the protein stability index was determined as 4.51. Consider FCADNPSELPPPMERTGGIEDSRP [G20E], for which the protein stability index was 4.53. The value for FCADNPSELPPPMERTGGIRDSRP [G20R] was 3.83; that for FCADNPSELPPPMERTGGIKDSRP [G20K] was 4.32. The value for FCADNPSELPPPMERTGGIYDSRP [G20Y] was 3.45.

In the case of FCADNPSELPPPMERTGGIQDSRP [G20Q], the protein stability index was 4.79.

FCADNPSELPPPMERTGGIGDSSP [R23S]: the protein stability index turned out to be 4.75. With FCADNPSELPPPMERTGGIGDSMP [R23M], the protein stability index came out at 4.12.

Regarding FCADNPSELPPPMERTGGIGDSGP [R23G], the protein stability index was found to be 4.72. On to FCADNPSELPPPMERTGGIGDSAP [R23A], for which the protein stability index came out at 4.89. For FCADNPSELPPPMERTGGIGDSIP [R23I], the protein stability index came out at 4.18.

Regarding FCADNPSELPPPMERTGGIGDSTP [R23T], the protein stability index came out at 5.04.

With FCADNPSELPPPMERTGGIGDSHP [R23H], the protein stability index was found to be 5.02. FCADNPSELPPPMERTGGIGDSNP [R23N]: the protein stability index is 5.22. The value for FCADNPSELPPPMERTGGIGDSEP [R23E] was 4.95. The value for FCADNPSELPPPMERTGGIGDSDP [R23D] was 5.18. On to FCADNPSELPPPMERTGGIGDSYP [R23Y], for which the protein stability index came out at 4.15. The value for FCADNPSELPPPMERTGGIGDSKP [R23K] was 4.94; that for FCADNPSELPPPMERTGGIGDSWP [R23W] was 2.21. FCADNPSELPPPMERTGGIGDSFP [R23F]: the protein stability index is 3.55. The value for FCADNPSELPPPMERTGGIGDSQP [R23Q] was 4.56. The value for FCADNPSELPPPMERTGGIGDSLP [R23L] was 3.74; that for FCADNPSELPPPMERTGGIGDSCP [R23C] was 4.59. The value for FCADNPSELPPPMERTGGIGDSVP [R23V] was 4.46; that for FCADNPSELPPPMKRTGGIGDSRP [E14K] was 4.07; that for FCADNPSELPPPMWRTGGIGDSRP [E14W] was 1.93. On to FCADNPSELPPPMRRTGGIGDSRP [E14R], for which the protein stability index came to 3.78.

On to FCADNPSELPPPMPRTGGIGDSRP [E14P], for which the protein stability index was determined as 4.27.

Regarding FCADNPSELPPPMLRTGGIGDSRP [E14L], the protein stability index was 3.05. The value for FCADNPSELPPPMQRTGGIGDSRP [E14Q] was 4.1. The value for FCADNPSELPPPMYRTGGIGDSRP [E14Y] was 3.13.

With FCADNPSELPPPMNRTGGIGDSRP [E14N], the protein stability index turned out to be 4.35. As to FCADNPSELPPPMTRTGGIGDSRP [E14T], the protein stability index worked out at 4.1.

Consider FCADNPSELPPPMSRTGGIGDSRP [E14S], for which the protein stability index amounted to 4.31. The value for FCADNPSELPPPMMRTGGIGDSRP [E14M] was 4.37; that for FCADNPSELPPPMERTGMIGDSRP [G18M] was 4.17. The value for FCADNPSELPPPMERTGPIGDSRP [G18P] was 4.04; that for FCADNPSELPPPMERTGNIGDSRP [G18N] was 4.89; that for FCADNPSELPPPMERTGLIGDSRP [G18L] was 4.34.

Take FCADNPSELPPPMERTGSIGDSRP [G18S]: the protein stability index stood at 4.64. Consider FCADNPSELPPPMERTGAIGDSRP [G18A], for which the protein stability index was 4.49. With FCADNPSELPPPMERTGRIGDSRP [G18R], the protein stability index stood at 4.34. The value for FCADNPSELPPPMERTGCIGDSRP [G18C] was 4.57. On to FCADNPSELPPPMERTGVIGDSRP [G18V], for which the protein stability index was found to be 4.

As to FCADNPSELPPPMERTGWIGDSRP [G18W], the protein stability index turned out to be 3.41. The value for FCADNPSELPPPMERTGHIGDSRP [G18H] was 4.34; that for FCADNPSELPPPMERTGIIGDSRP [G18I] was 4.05. On to FCADNPSELPPPMERTGDIGDSRP [G18D], for which the protein stability index is 4.77.

As for FCADNPSELPPPMERTGQIGDSRP [G18Q], the protein stability index stood at 4.81. Consider FCADNPSELPPPMERTGEIGDSRP [G18E], for which the protein stability index stood at 5.06. The value for FCADNPSELPPPMERTGKIGDSRP [G18K] was 4.88; that for FCADNPSELPPPMERTGFIGDSRP [G18F] was 4.03; that for FCADNPSELPPPMERTGTIGDSRP [G18T] was 4.47. The value for FCADNPSELPPPMERTGYIGDSRP [G18Y] was 3.38.
